Assay results as given in IntAct's records for PubMed 22801494.

B1: Interferon-induced, double-stranded RNA-activated protein kinase (Homo sapiens), P19525 (parent)
chain: MAGDLSAGFFMEELNTYRQKQGVVLKYQELPNSGPPHDRRFTFQVIIDGREFPEGEGRSKKEAKNAAAKLAVEILNKEKKAVSPLLLTTTNSSEGLSMGNYIGLINRIAQKKRLTVNYEQCASGVHGPEGFHYKCKMGQKEYSIGTGSTKQEAKQLAAKLAYLQILSEETSVKSDYLSSGSFATTCESQSNSLVTSTLASESSSEGDFSADTSEINSNSDSLNSSSLLMNGLRNNQRKAKRSLAPRFDLPDMKETKYTVDKRFGMDFKEIELIGSGGFGQVFKAKHRIDGKTYVIKRVKYNNEKAEREVKALAKLDHVNIVHYNGCWDGFDYDPETSDDSLESSDYDPENSKNSSRSKTKCLFIQMEFCDKGTLEQWIEKRRGEKLDKVLALELFEQITKGVDYIHSKKLIHRDLKPSNIFLVDTKQVKIGDFGLVTSLKNDGKRTRSKGTLRYMSPEQISSQDYGKEVDLYALGLILAELLHVCDTAFETSKFFTDLRDGIISDIFDKKEKTLLQKLLSKKPEDRPNTSEILRTLTVWKKSPEKNERHTC

Variants of: B1
Conditions: with nlrp3_human NLRP3, Q96P20
nlrp3_human NLRP3, Q96P20, sequence (Q96P20 whole entry): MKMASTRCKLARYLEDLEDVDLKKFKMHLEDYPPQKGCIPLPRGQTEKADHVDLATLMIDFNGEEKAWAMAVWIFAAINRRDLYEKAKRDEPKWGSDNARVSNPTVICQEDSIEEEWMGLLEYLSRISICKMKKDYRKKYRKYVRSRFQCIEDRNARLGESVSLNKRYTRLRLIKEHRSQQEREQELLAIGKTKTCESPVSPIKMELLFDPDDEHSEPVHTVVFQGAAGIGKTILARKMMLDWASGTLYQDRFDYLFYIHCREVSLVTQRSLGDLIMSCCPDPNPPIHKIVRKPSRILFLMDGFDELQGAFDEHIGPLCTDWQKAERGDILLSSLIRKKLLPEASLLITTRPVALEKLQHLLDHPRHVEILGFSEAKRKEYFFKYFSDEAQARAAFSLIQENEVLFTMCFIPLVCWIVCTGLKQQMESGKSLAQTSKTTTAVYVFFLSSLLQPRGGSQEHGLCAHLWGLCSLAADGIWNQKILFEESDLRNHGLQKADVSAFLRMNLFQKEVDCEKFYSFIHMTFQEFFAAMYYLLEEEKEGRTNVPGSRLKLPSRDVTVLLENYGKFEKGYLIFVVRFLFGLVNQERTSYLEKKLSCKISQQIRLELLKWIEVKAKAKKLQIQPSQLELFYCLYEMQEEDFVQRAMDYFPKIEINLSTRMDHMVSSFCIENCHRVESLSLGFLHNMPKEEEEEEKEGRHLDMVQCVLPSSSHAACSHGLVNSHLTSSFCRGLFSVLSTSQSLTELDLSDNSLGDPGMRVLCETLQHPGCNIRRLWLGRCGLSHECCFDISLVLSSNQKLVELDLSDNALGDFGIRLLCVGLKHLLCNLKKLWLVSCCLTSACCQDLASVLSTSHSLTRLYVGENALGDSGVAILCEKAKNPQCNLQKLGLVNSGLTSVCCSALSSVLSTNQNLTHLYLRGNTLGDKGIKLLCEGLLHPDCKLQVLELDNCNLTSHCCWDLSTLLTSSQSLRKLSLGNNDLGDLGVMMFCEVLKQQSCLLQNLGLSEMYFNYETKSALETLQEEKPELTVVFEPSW

Row | effect of a mutation on the interaction | Variant
1 | disrupting interaction strength | MAGDLSAGFFMEELNTYRQKQGVVLKYQELPNSGPPHDRRFTFQVIIDGREFPEGEGRSKKEAKNAAAKLAVEILNKEKKAVSPLLLTTTNSSEGLSMGNYIGLINRIAQKKRLTVNYEQCASGVHGPEGFHYKCKMGQKEYSIGTGSTKQEAKQLAAKLAYLQILSEETSVKSDYLSSGSFATTCESQSNSLVTSTLASESSSEGDFSADTSEINSNSDSLNSSSLLMNGLRNNQRKAKRSLAPRFDLPDMKETKYTVDKRFGMDFKEIELIGSGGFGQVFKAKHRIDGKTYVIRRVKYNNEKAEREVKALAKLDHVNIVHYNGCWDGFDYDPETSDDSLESSDYDPENSKNSSRSKTKCLFIQMEFCDKGTLEQWIEKRRGEKLDKVLALELFEQITKGVDYIHSKKLIHRDLKPSNIFLVDTKQVKIGDFGLVTSLKNDGKRTRSKGTLRYMSPEQISSQDYGKEVDLYALGLILAELLHVCDTAFETSKFFTDLRDGIISDIFDKKEKTLLQKLLSKKPEDRPNTSEILRTLTVWKKSPEKNERHTC [K296R]
